We go through three substances from paper PMC10553838, “Functional and structural insights into the multi-step activation and catalytic mechanism of bacterial ExoY nucleotidyl cyclase toxins bound to actin-profilin” (PLOS Pathogens, 2023).

For assay [1], the target named is Alexa-488-labelled G-actin-ATP (rabbit) (UniProt P68135). Description: AUC.
In assay [2] the target is α-actin from rabbit skeletal muscle, monomeric (G-actin) (rabbit) (UniProt P68135). Description: pyrene-actin seeded elongation rates with profilin, fitted with G-actin sequestration by Vn-ExoY.
Assay [3] has the same target. Put plainly: pyrene-actin seeded elongation rates fitted to a G-actin sequestration model; initial barbed-end (spectrin-actin seeds) and pointed-end (gelsolin-actin seeds) growth rates, 1.5 μM G-actin-ATP-Mg, increasing Vn-ExoY^DM; 28 mM KCl, 2 mM MgCl2, 10 mM Tris-HCl pH 7.5, 2 mM ATP, 1 mM DTT; 25°C; KD from the fit of Eq 1 and 2.

For orientation: Kd means a measure of binding affinity in units of concentration. As a reminder, the stoichiometry N is a count of units in the complex or per binding partner. In assay [1], “Trx-Vn-ExoY (Vn-ExoY fused to Thioredoxin) (domain or fragment)” yielded a Kd of 11.7 µM and a stoichiometry N of 1.

“Vn-ExoY^3412-3873 (wild type) (domain or fragment)” returned a Kd in assay [2] of 12 to 14 µM.

In assay [3], “Vn-ExoY^DM (Vn-ExoY^412-873 K528M/K535I, inactive double mutant) (domain or fragment)” registered a Kd of 21 µM and a stoichiometry N of 1.
